Data as given in US20250152742A1, “COMPOSITIONS AND METHODS FOR NEUROLOGICAL DISEASES” (Trames Bio, Inc., priority 2022, published 2025).

Test system: engineered chimeric receptor SEQ ID NO: 33 and its mutants (human α7-nAChR ligand binding domain / human GlyRα1 ion pore domain) in Lenti-X 293T cells
Experiment: YFP fluorescence quenching anion reporter plate reader assay (percent quench, EC50)
Type: cell-based
Details: for YFP fluorescence quenching using CNL001 (percent quench): receptor named in row; for YFP fluorescence quenching using Varenicline, 3 nM var: ligand Varenicline 3 nM; for YFP fluorescence quenching using Varenicline, 30 nM var: ligand Varenicline 30 nM; for YFP fluorescence quenching using Varenicline, 300 nM var: ligand Varenicline 300 nM; for YFP fluorescence quenching using Varenicline, 500 nM var: ligand Varenicline 500 nM; for YFP fluorescence quenching using Varenicline, 1 uM var: ligand Varenicline 1 uM
Method in brief: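 Lenti-X 293T cells co-expressing an anion-quenchable YFP were transiently transfected with receptor DNA, then ligand was added in NaI-substituted buffer (pH 7.2) after 30 min at 37 °C. Fluorescence was read about 2 min; percent quench = mean of last 10 s over 15 s pre-ligand baseline.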

[1] = 1 nM CNL001, first column so headed
[2] = 1 nM CNL001, second column so headed
[3] = 3 nM brd (TC-5619/Bradanicline)
[4] = 10 nM CNL001, first column so headed
[5] = 10 nM CNL001, second column so headed
[6] = 30 nM brd (TC-5619/Bradanicline)
[7] = 50 nM CNL001, first column so headed
[8] = 50 nM CNL001, second column so headed
[9] = 100 nM CNL001, first column so headed
[10] = 100 nM CNL001, second column so headed
[11] = 300 nM brd (TC-5619/Bradanicline)
[12] = 1 uM CNL001, first column so headed
[13] = 1 uM CNL001, second column so headed

B1: CODA965: engineered receptor: Y140C in SEQ ID NO: 33 (protein)
chain: MRCSPGGVWLALAASLLHVSLQGEFQRKLYKELVKNYNPLERPVANDSQPLTVYFSLSLLQIMDVDEKNQVLTTNIWLQMSWTDHYLQWNVSEYPGVKTVRFPDGQIWKPDILLYNSADERFDATFHTNVLVNSSGHCQCLPPGIFKSSCPMDLKNFPMDVQTCKLKFGSWSYGGWSLDLQMQEADISGYIPNGEWDLVGIPGKRSERFYECCKEPYPDVTFTVTMRRRMGYYLIQMYIPSLLIVILSWISFWINMDAAPARVGLGITTVLTMTTQSSGSRASLPKVSYVKAIDIWMAVCLLFVFSALLEYAAVNFVSRQHKELLRFRRKRRHHKSPMLNLFQEDEAGEGRFNFSAYGMGPACLQAKDGISVKGANNSNTTNPPPAPSKSPEEMRKLFIQRAKKIDKISRIGFPMAFLIFNMFYWIIYKIVRREDVHNQ
modifications: synthetic sequence of chimeric LGIC
YFP fluorescence quenching using CNL001 (percent quench) [1]: −12.765% | YFP fluorescence quenching using CNL001 (percent quench) [2]: −12.608% | YFP fluorescence quenching using TC-5619/Bradanicline (percent quench) [3]: −18.49% | YFP fluorescence quenching using CNL001 (percent quench) [4]: 68.134% | YFP fluorescence quenching using CNL001 (percent quench) [5]: 71.394% | YFP fluorescence quenching using TC-6683 (percent quench) (30 nM TC-6683): −8.21% | YFP fluorescence quenching using TC-5619/Bradanicline (percent quench) [6]: 22.66% | YFP fluorescence quenching using CNL001 (percent quench) [7]: 80.298% | YFP fluorescence quenching using CNL001 (percent quench) [8]: 82.159% | YFP fluorescence quenching using ABT-126 (percent quench) (50 nM abt (ABT-126)): −10.75% | YFP fluorescence quenching using CNL001 (percent quench) [9]: 82.404% | YFP fluorescence quenching using CNL001 (percent quench) [10]: 82.14% | YFP fluorescence quenching (percent quench) (100 nM CNL002): 43.24% | YFP fluorescence quenching using ABT-126 (percent quench) (100 nM abt (ABT-126)): −4.11% | YFP fluorescence quenching using AZD-0328 (percent quench) (100 nM azd0328): −16.69% | YFP fluorescence quenching using TC-6683 (percent quench) (300 nM TC-6683): −16.37% | YFP fluorescence quenching using ABT-126 (percent quench) (300 nM abt (ABT-126)): 18.93% | YFP fluorescence quenching using AZD-0328 (percent quench) (300 nM azd0328): 1.3% | YFP fluorescence quenching using TC-5619/Bradanicline (percent quench) [11]: 38.02% | YFP fluorescence quenching using CNL001 (percent quench) [12]: 82.34% | YFP fluorescence quenching using CNL001 (percent quench) [13]: 80.649% | YFP fluorescence quenching (percent quench) (1 uM CNL002): 42.72% | YFP fluorescence quenching using ABT-126 (percent quench) (1 uM abt (ABT-126)): 52.64% | YFP fluorescence quenching using TC-6683 (percent quench) (3 uM TC-6683): −19.48% | YFP fluorescence quenching (percent quench) (10 uM ach (acetylcholine)): −21.71% | YFP fluorescence quenching (percent quench) (30 uM CNL002): 51.43% | YFP fluorescence quenching using TC-6683 (percent quench) (30 uM TC-6683): −24.32% | YFP fluorescence quenching using AZD-0328 (percent quench) (30 uM azd0328): 21.78% | YFP fluorescence quenching using TC-6683 (percent quench) (100 uM TC-6683): −24.99% | YFP fluorescence quenching (percent quench) (100 uM ach (acetylcholine)): 3.49% | YFP fluorescence quenching (percent quench) (1 mM ach (acetylcholine)): 63.34% | YFP fluorescence quenching (percent quench) (3 mM ach (acetylcholine)): 51.92% | YFP fluorescence quenching using Facinicline, 30 nM fac (ligand Facinicline 30 nM): −12.29 | YFP fluorescence quenching using Facinicline, 300 nM fac (ligand Facinicline 300 nM): 20.11 | YFP fluorescence quenching using Facinicline, 30 uM fac (ligand Facinicline 30 uM): 37.62 | YFP fluorescence quenching using TC-6987, 1 uM tc6987 (ligand TC-6987 1 uM): 2.73 | YFP fluorescence quenching using TC-6987, 10 uM tc6987 (ligand TC-6987 10 uM): 30.37 | YFP fluorescence quenching using TC-6987, 500 uM tc6987 (ligand TC-6987 500 uM): 33.07 | YFP fluorescence quenching using Varenicline, 3 nM var (first column): −17.716 | YFP fluorescence quenching using Varenicline, 3 nM var (second column): −23.019 | YFP fluorescence quenching using Varenicline, 30 nM var (first column): −14.993 | YFP fluorescence quenching using Varenicline, 30 nM var (second column): −12.182 | YFP fluorescence quenching using Varenicline, 300 nM var (first column): −11.731 | YFP fluorescence quenching using Varenicline, 300 nM var (second column): −10.13 | YFP fluorescence quenching using Varenicline, 500 nM var (first column): −12.518 | YFP fluorescence quenching using Varenicline, 500 nM var (second column): −15.043 | YFP fluorescence quenching using Varenicline, 1 uM var (first column): −13.385 | YFP fluorescence quenching using Varenicline, 1 uM var (second column): −17.022

B2: CODA1047: engineered receptor: R101F, Y210V in SEQ ID NO: 33 (protein)
chain: MRCSPGGVWLALAASLLHVSLQGEFQRKLYKELVKNYNPLERPVANDSQPLTVYFSLSLLQIMDVDEKNQVLTTNIWLQMSWTDHYLQWNVSEYPGVKTVFFPDGQIWKPDILLYNSADERFDATFHTNVLVNSSGHCQYLPPGIFKSSCPMDLKNFPMDVQTCKLKFGSWSYGGWSLDLQMQEADISGYIPNGEWDLVGIPGKRSERFVECCKEPYPDVTFTVTMRRRMGYYLIQMYIPSLLIVILSWISFWINMDAAPARVGLGITTVLTMTTQSSGSRASLPKVSYVKAIDIWMAVCLLFVFSALLEYAAVNFVSRQHKELLRFRRKRRHHKSPMLNLFQEDEAGEGRFNFSAYGMGPACLQAKDGISVKGANNSNTTNPPPAPSKSPEEMRKLFIQRAKKIDKISRIGFPMAFLIFNMFYWIIYKIVRREDVHNQ
modifications: synthetic sequence of chimeric LGIC
YFP fluorescence quenching using CNL001 (percent quench) [1]: −7.82% | YFP fluorescence quenching using CNL001 (percent quench) [2]: −8.382% | YFP fluorescence quenching using TC-5619/Bradanicline (percent quench) (1 nM brd (TC-5619/Bradanicline)): −5.548% | YFP fluorescence quenching using TC-5619/Bradanicline (percent quench) [3]: −9.432% | YFP fluorescence quenching using CNL001 (percent quench) [4]: −5.381% | YFP fluorescence quenching using CNL001 (percent quench) [5]: −1.431% | YFP fluorescence quenching using TC-5619/Bradanicline (percent quench) (10 nM brd (TC-5619/Bradanicline)): −3.068% | YFP fluorescence quenching using TC-6683 (percent quench) (30 nM TC-6683): −24.195% | YFP fluorescence quenching using TC-5619/Bradanicline (percent quench) [6]: 2.368% | YFP fluorescence quenching using CNL001 (percent quench) [7]: −0.999% | YFP fluorescence quenching using CNL001 (percent quench) [8]: 3.909% | YFP fluorescence quenching using ABT-126 (percent quench) (50 nM abt (ABT-126)): −14.1% | YFP fluorescence quenching using CNL001 (percent quench) [9]: −0.823% | YFP fluorescence quenching using CNL001 (percent quench) [10]: −5.885% | YFP fluorescence quenching using ABT-126 (percent quench) (100 nM abt (ABT-126)): −11.72% | YFP fluorescence quenching using TC-5619/Bradanicline (percent quench) (100 nM brd (TC-5619/Bradanicline)): 47.529% | YFP fluorescence quenching using TC-6683 (percent quench) (300 nM TC-6683): −24.234% | YFP fluorescence quenching using ABT-126 (percent quench) (300 nM abt (ABT-126)): −12.98% | YFP fluorescence quenching using TC-5619/Bradanicline (percent quench) [11]: 74.413% | YFP fluorescence quenching using CNL001 (percent quench) [12]: 1.638% | YFP fluorescence quenching using CNL001 (percent quench) [13]: 3.483% | YFP fluorescence quenching using ABT-126 (percent quench) (1 uM abt (ABT-126)): −15.09% | YFP fluorescence quenching using TC-6683 (percent quench) (3 uM TC-6683): −21.291% | YFP fluorescence quenching (percent quench) (10 uM ach (acetylcholine)): −4.26% | YFP fluorescence quenching using TC-6683 (percent quench) (30 uM TC-6683): −16.363% | YFP fluorescence quenching using TC-6683 (percent quench) (100 uM TC-6683): −24.9% | YFP fluorescence quenching (percent quench) (100 uM ach (acetylcholine)): −13.05% | YFP fluorescence quenching (percent quench) (300 uM ach (acetylcholine)): −11.73% | YFP fluorescence quenching (percent quench) (500 uM ach (acetylcholine)): −10.75% | YFP fluorescence quenching (percent quench) (1 mM ach (acetylcholine)): −8.81% | YFP fluorescence quenching (percent quench) (3 mM ach (acetylcholine)): −6.77% | YFP fluorescence quenching (percent quench) (10 mM ach (acetylcholine)): −1.03% | YFP fluorescence quenching using Varenicline, 3 nM var (first column): −3.035 | YFP fluorescence quenching using Varenicline, 3 nM var (second column): −0.786 | YFP fluorescence quenching using Varenicline, 30 nM var (first column): −5.181 | YFP fluorescence quenching using Varenicline, 30 nM var (second column): 0.669 | YFP fluorescence quenching using Varenicline, 300 nM var (first column): −2.748 | YFP fluorescence quenching using Varenicline, 300 nM var (second column): −6.708 | YFP fluorescence quenching using Varenicline, 500 nM var (first column): −9.123 | YFP fluorescence quenching using Varenicline, 500 nM var (second column): −9.869 | YFP fluorescence quenching using Varenicline, 1 uM var (first column): −6.702 | YFP fluorescence quenching using Varenicline, 1 uM var (second column): −7.26
